Test results as given in patent US7329737 (DYAX, dated 2008).

target: T1, hK1 (human tissue kallikrein 1), recombinant (human, UniProt P06870 25-262); assay: SPR
T1 construct: Expressed in P. pastoris from KLK1 cDNA and purified; enzymatically active; also called KLK1; Recombinant (Pichia) Kallikrein

| Kd [nM] | koff [s⁻¹] | kon [M⁻¹ s⁻¹] | Binder |
| --- | --- | --- | --- |
| 18.2 | 0.00947 | 520000 | M0116-C09 (Fab, V domains shown) VH: EVQLLESGGGLVQPGGSLRLSCAASGFTFSNYKMHWVRQAPGKGLEWVSSIYPSGGWTVYADSVKGRFTISRDNSKNTLYLQMNSLRAEDTAVYYCATGYSSTWGAFDIWGQGTMVTVSS VL: AQSALTQPPSVSVSPGQTASITCFGDKLGDKYGSWYQQKPGQSPVLVLYQYWKRPSGIPERFSGSNSGNTATLTINVTQTMDEADYYCQAWDSNTVVFGGGTKLTVLG |
| 20.8 | 0.00427 | 205000 | M0122-D01 (Fab, V domains shown) VH: EVQLLESGGGLVQPGGSLRLSCAASGFTFSHYIMHWVRQAPGKGLEWVSGIYPSGGSTKYADSVKGRFTISRDNSKNTLYLQMNSLRAEDTAVYYCARALVGALDYWGQGTLVTVSS VL: DIQMTQSPSSVSASVGDRVTITCRASQDIRTWLAWYQQKSGKAPKLLIYSSSSLQSGISSRFSGSGSGTDFTLTISNLQPEDSAIYYCQQATTFPWTFGQGTKVEIKR |
| 18.4 | 0.00612 | 332000 | M0128-A06 (Fab, V domains shown) VH: EVQLLESGGGLVQPGGSLRLSCAASGFTFSHYKMNWVRQAPGKGLEWVSYIGSSGGKTGYADSVKGRFTISRDNSKNTLYLQMNSLRAEDTALYYCARVGVWYGMDVWGQGTLVTVSS VL: AQSALTQPPSLSVSAGQTATITCSPSGGGLRNKYVSWYQQRPGQSPFLVIYKDAERPSGIPERFSGSNFGNTATLTIGGTQAMDEADFYCLAWDSTTRVFGGGTKLTVLS |
| 20.3 | 0.0012 | 59100 | M0124-H10 (Fab, V domains shown) VH: EVQLLESGGGLVQPGGSLRLSCAASGFTFSNYFMNWVRQAPGKGLEWVSSIGSSGGYTRYADSVKGRFTISRDNSKNTLYLQMNSLRAEDTAVYYCARVGVWYGMDVWGQGTTVTVSS VL: DIQMTQSPATLSLSAGERATLSCRASQSVNIDVGWYQQKPGQAPRLLIYDASKRATGIPTRFSGSGSGTDFTLTIANLEPEDFAVYYCQQRARWLTFGGGTRLEIKR |
| 18.3 | 0.0143 | 780000 | M0128-F11 (Fab, V domains shown) VH: EVQLLESGGGLVQPGGSLRLSCAASGFTFSFYVMGWVRQAPGKGLEWVSWIGPSGGRTWYADSVKGRFTISRDNSKNTLYLQMNSLRAEDTAVYYCARDRGWYGIDVWGQGTTVTVSS VL: DIQMTQSPSSLSASVGDRVTITCRASQYISTYLAWYQQKPGKAPKLLIYKASDLESGVPSRFSGSGSGTEFTLTINSLQPDDFATYYCQQYNTYWTFGHGTKVEIKR |
| 26.8 | 0.00613 | 229000 | M0123-E02 (Fab, V domains shown) VH: EVQLLESGGGLVQPGGSLRLSCAASGFTFSHYRMDWVRQAPGKGLEWVSGIYPSGGHTNYADSVKGRFTISRDNSKNTLYLQMNSLRAEDTAVYYCARDRGWYGADYWGQGTLVTVSS VL: AQSALTQPASVSGSPGQSITISCSGTSSDVGAYYHVSWYQQHPGKAPKLMIYDVSNRPSGVSNRFSGSKSGNTASLTISGLQAEDEADYYCSLYIGTSTPWVFGGGTKLTVLG |
| 18.4 | 0.00193 | 105000 | M0131-D12 (Fab, V domains shown) VH: EVQLLESGGGLVQPGGSLRLSCAASGFTFSWYNMYWVRQAPGKGLEWVSYIVPSGGATHYADSVKGRFTISRDNSKNTLYLQMNSLRAEDTAVYYCARALRGYSYGPRGYYYYGMDVWGQGTTVTVSS VL: AQSALTQPPSVSVAPGQTASISCSGNILDNSYASWFQQKPGQSPVMVIHRDNKRPSGIPERFSGSTSGNTATLTISGTQAVDEADYYCQAWDRTTGVFGTGTRLTVLR |
| 17.7 | 0.00466 | 264000 | M0131-C08 (Fab, V domains shown) VH: EVQLLESGGGLVQPGGSLRLSCAASGFTFSWYSMTWVRQAPGKGLEWVSSISPSGGATKYADSVKGRFTISRDNSKNTLYLQMNSLRAEDTAVYYCARGGAASLPFDYWGQGTLVTVSS VL: DIQMTQSPSSVSASVGDRVTITCRASQDVLVSFAWYQQRPGTAPKLLIYAASHLHPGVPSRFSASGSGTDFTLTINGLQPEDFATYYCQQARSFPHTFGQGTRLEKKR |
| 25.6 | 0.0035 | 137000 | M0132-C01 (Fab, V domains shown) VH: EVQLLESGGGLVQPGGSLRLSCAASGFTFSRYLMWWVRQAPGKGLEWVSVIGPSGGWTRYADSVKGRFTISRDNSKNTLYLQMNSLRAEDTAVYYCARHPGDYWGQGTLVTVSS VL: AQSALTQPRSVSGSPGQSVTISCTGTGSNIDGYNYVSWYQQYPGNAPKLIIYDVGKRPSGVPNRFSGSKSGNTASLTISGLQAEDEADYYCCSYAGSYSYVFGVGTKVTVLG |
| 18.8 | 0.00513 | 272000 | M0137-G10 (Fab, V domains shown) VH: EVQLLESGGGLVQPGGSLRLSCAASGFTFSRYVMHWVRQAPGKGLEWVSYISPSGGVTKYADSVKGRFTISRDNSKNTLYLQMNSLRAEDTAVYYCAKALYPGMGYYYGMDVWGQGTTVTVSS VL: DIQMTQSPSSLSASVGDRVTITCRTSQTVSTFLNWYQQKPGTAPKLLIYAASRLQSGVPSRFSGSGSETDFTLTISRLQPEDFATYYCQQSFTSPRTFGLGTKVEIKR |
| 22.8 | 0.00826 | 362000 | M0117-B07 (Fab, V domains shown) VH: EVQLLESGGGLVQPGGSLRLSCAASGFTFSHYTMWWVRQAPGKGLEWVSRIWPSGGTTRYADSVKGRFTISRDNSKNTLYLQMNSLRAEDTAVYYCARGGSYLAFDIWGQGTMVTVSS VL: DIQMTQSPATLSLSPGERATLSCRASQSVSSYLAWYQQKPGQAPRLLIYDASNRATGIPARFSGSGSGTDFTLTISSLEPEDFAVYYCQQRSNFGGGTKVEIKR |
| 23 | 0.415 | 1.8e+07 | M0126-H09 (Fab, V domains shown) VH: EVQLLESGGGLVQPGGSLRLSCAASGFTFSNYTMMWVRQAPGKGLEWVSGIYPSGGQTAYADSVKGRFTISRDNSKNTLYLQMNSLRAEDTAVYYCARGGSWYAFDIWGQGTMVTVSS VL: AQSVLTQDPAVSVALGQTVRFTCQGDSLRNYHPSWYQQKPRQAPVLVMFGRNNRPSGIPDRFSGSTSGGTASLTITATQADDEADYFCSSRDGSGNFLFGGGTKLTVLG |

The next lines start with the binder.

| Binder | Kd [nM] | koff [s⁻¹] | kon [M⁻¹ s⁻¹] |
| --- | --- | --- | --- |
| M0096-D03 (Fab, V domains shown) VH: EVQLLESGGGLVQPGGSLRLSCAASGFTFSHYWMVWVRQAPGKGLEWVSWIGPSGGGTVYADSVKGRFTISRDNSKNTLYLQMNSLRAEDTAVYYCARGNGGFDSWGRGTLVTVSS VL: AQSELTQPRSVSGSPGQSVTISCTGTTRDVGAYKYVSWYQQYPGKAPKLMLSDVSKRPSGVPDRFSGSKSGNTASLTISGLQSEDEADYYCCSFAGSYTWIFGGGTKVTVLG | 28.1 | 0.00945 | 337000 |
| M0106-E12 (Fab, V domains shown) VH: EVQLLESGGGLVQPGGSLRLSCAASGFTFSHYNMTWVRQAPGKGLEWVSSIWPSGGATRYADSVKGRFTISRDNSKNTLYLQMNSLRAEDTAVYYCARTSRFYGMDVWGQGTTVTVSS VL: DIQMTQSPGTLSLSPGERATLSCRPSQSVYSNYLAWYQQKPGQAPRLLIYGASTRATGIPDRFSGSASGTDFTLTISRLEPEDFAVYYCQQYGNSYTFGPGTKVDIKR | 19.9 | 2.44 | 1.23e+08 |
| M0106-C06 (Fab, V domains shown) VH: EVQLLESGGGLVQPGGSLRLSCAASGFTFSHYTMQWVRQAPGKGLEWVSSIYPSGGATKYADSVKGRFTISRDNSKNTLYLQMNSLRAEDTAMYYCARSGYYYGLDVWGQGTTVTVSS VL: DIQMTQSPATLSASVGDRVTITCRASQSVSRWLAWYQQKPGKAPKLLIYKASTLESGVPSRFSGSGSGTEFTLTISSLQPDDFATYYCQQYGAFGQGTKVEIRR | 22.6 | 0.0142 | 628000 |
| M0093-G09 (Fab, V domains shown) VH: EVQLLESGGGLVQPGGSLRLSCAASGFTFSWYSMTWVRQAPGKGLEWVSSISPSGGATKYADSVKGRFTISRDNSKNTLYLQMNSLRAEDTAVYYCARGGAASLPFDYWGQGTLVTVSS VL: DIQMTQSPSSLSASVGDRVTITCRASQSISSFLNWYQQKPGKAPKLLLMYAASSLQSGVPSRFSGSGSGTDFTLTISSLQPEDFATYYCQQSYSTPYTFGQGTKLEIKR | 23 | 0.0105 | 458000 |
| M0095-G09 (Fab, V domains shown) VH: EVQLLESGGGLVQPGGSLRLSCAASGFTFSNYNMHWVRQAPGKGLEWVSVIYPSGGYTVYADSVKGRFTISRDNSKNTLYLQMNSLRAEDTAVYYCARRGNWGGIDYWGQGTLVTVSS VL: DIQMTQSPSSLSASVGDRVTITCRASQSISNWLAWYQQKPGKAPKLLIYKASTLQTGVPSRFSGSGSGTEFSLTISSLQPDDFATYYCQQTYSAPFNFGPGTKVDIKR | 18.6 | 0.0934 | 5.01e+06 |
| M0102-G11 (Fab, V domains shown) VH: EVQLLESGGGLVQPGGSLRLSCAASGFTFSRYMMEWVRQAPGKGLEWVSGISPSGGTTKYADSVKGRFTISRDNSKNTLYLQMNSLRAEDTAVYYCTRGGYNNYYYALDVWGQGTTVTVSS VL: DIQMTQSPDTLSLSPGERATLSCRASESVSSSYFAWYQQKRGQAPRLLIYGASRRVTGIPDRFSGSGSGTDFTLTITRLEPEDFAVYYCQQYGGSPRSFGQGTKVEIKR | 24.8 | 0.0116 | 467000 |
| M0093-C10 (Fab, V domains shown) VH: EVQLLESGGGLVQPGGSLRLSCAASGFTFSRYTMEWVRQAPGKGLEWVSVIRPSGGTTMYADSVKGRFTISRDNSKNTLYLQMNSLRAEDMAVYYCARVGVWYGMDVWGQGTTVTVSS VL: DIQITQSPSSLSASVGDRVTITCRASQGISNYLAWYQQKPGKVPKLLIYAASTLQSGVPSRFSGSGSGTDFTLTISSLQPEDFATYYCEQLNSFPHAFGQGTKVEIKR | 22.6 | 0.00752 | 333000 |
| M0114-E02 (Fab, V domains shown) VH: EVQLLESGGGLVQPGGSLRLSCAASGFTFSHYKMMWVRQAPGKGLEWVSYIYPSGGWTGYADSVKGRFTISRDNSKNTLYLQMNSLRAEDTAVYYCARVGPWDAFDIWGQGTMVTVSS VL: DIQMTQSPATLSLSPGERATLSCRASQSVGGYLAWYQQKPGQAPRLLIYDASKRATGIPARFSGSGSGTDFTLTISSLEPEDFAVYYCQQRSKWPPYTFGQGTKLEIKR | 23.2 | 0.00936 | 403000 |
